{
  "source": "the Human Domainome abundance scans (Beltran et al. 2025)",
  "note": "± gives the uncertainty stated by the source.",
  "data": [
    {"experiment": "abundance fitness (aPCA) (normalised: wild type 0, dead -1); higher = more abundant; growth selection in yeast, the domain comes from the species named", "conditions": "Homo sapiens", "values": [
      {"substance": "E3 ubiquitin-protein ligase NEDD4 A851D, P46934", "abundance fitness": "-0.043 ± 0.04"},
      {"substance": "E3 ubiquitin-protein ligase NEDD4 E869I, P46934", "abundance fitness": "-0.137 ± 0.071"},
      {"substance": "E3 ubiquitin-protein ligase NEDD4 F857Y, P46934", "abundance fitness": "0.013 ± 0.048"},
      {"substance": "E3 ubiquitin-protein ligase NEDD4 H850V, P46934", "abundance fitness": "-0.155 ± 0.055"},
      {"substance": "E3 ubiquitin-protein ligase NEDD4 I859V, P46934", "abundance fitness": "-0.074 ± 0.065"},
      {"substance": "E3 ubiquitin-protein ligase NEDD4 K844D, P46934", "abundance fitness": "-0.053 ± 0.031"},
      {"substance": "E3 ubiquitin-protein ligase NEDD4 K864R, P46934", "abundance fitness": "-0.042 ± 0.053"},
      {"substance": "E3 ubiquitin-protein ligase NEDD4 N853D, P46934", "abundance fitness": "-0.116 ± 0.071"},
      {"substance": "E3 ubiquitin-protein ligase NEDD4 P852S, P46934", "abundance fitness": "-0.058 ± 0.055"},
      {"substance": "E3 ubiquitin-protein ligase NEDD4 R849K, P46934", "abundance fitness": "0.052 ± 0.062"},
      {"substance": "E3 ubiquitin-protein ligase NEDD4 T863Q, P46934", "abundance fitness": "-0.511 ± 0.1"},
      {"substance": "E3 ubiquitin-protein ligase NEDD4 V848I, P46934", "abundance fitness": "-0.103 ± 0.075"}
    ]}
  ]
}
